The results in this text go back to publication PMC2483528.

Assay in all cases: pull-down
Test [1] has as its target GST-Gαi3 G203A (rat, inactive mutant) (rat) (UniProt P08753).
Test [2] deals with GST-Gαi3 wild type (rat) (rat) (UniProt P08753).
For a further test, the target named is GST-Gαs (human) (human) (UniProt P63092).
Chain of UniProt P63092 (P63092 2-394): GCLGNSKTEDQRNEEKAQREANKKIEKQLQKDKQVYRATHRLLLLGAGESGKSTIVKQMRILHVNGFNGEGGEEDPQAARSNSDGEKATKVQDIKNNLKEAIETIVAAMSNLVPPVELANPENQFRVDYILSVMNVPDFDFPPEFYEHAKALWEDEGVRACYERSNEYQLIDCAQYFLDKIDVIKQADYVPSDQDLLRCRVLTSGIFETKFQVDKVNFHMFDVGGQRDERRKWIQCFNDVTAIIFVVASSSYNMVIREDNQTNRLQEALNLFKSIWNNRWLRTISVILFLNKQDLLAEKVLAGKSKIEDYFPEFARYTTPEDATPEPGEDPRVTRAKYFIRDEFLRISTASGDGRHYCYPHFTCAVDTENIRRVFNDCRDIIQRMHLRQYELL

For the substance “GIV (Gα-interacting vesicle-associated protein), endogenous in HeLa cell lysate (natural protein)”, the fold more GIV bound than by Gαi3Q204L in test [1] was 10 to 15 fold. In test [2], this substance showed a percent of the total GIV bound of 10 to 30%. The same substance came in with a fold less GIV bound than by GST-Gαi3 with GST-Gαs (human) (human) of 100 to 300 fold.
Substance “GIV S1416A, in vitro translated (natural protein)” showed a percent of GIV bound to GST-Gαi3 in test [2] of 13%.
The substance “GIV S1416D, in vitro translated (natural protein)” displayed a percent of GIV bound to GST-Gαi3 in test [2] of 14%.
As for “GIV, full length, in vitro translated (natural protein)”, in test [1], the fold more GIV bound than by Gαi3Q204L is 10 to 15 fold. Also, in test [2], the percent of GIV bound to GST-Gαi3 is 14%. The fold less GIV bound than by GST-Gαi3 in the test with GST-Gαs (human) (human) lay in the range of 100 to 300 fold.
